In patent US20230095569A1 (ANTENGENE BIOLOGICS, published 2023):

Tests used:
[1] = biological target: T1, human Claudin18.2 (CLDN18.2) (human, UniProt P56856 1-261); assay: FACS on CHOK1-18.2 cells;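 also: antibody binding to the cells detected with a fluorescently labelled secondary antibody and read out as median fluorescence intensity by flow cytometry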
T1 construct: the cell line is named under assay; also called human Claudine18.2; hClaudin18.2
Procedure: (§1) The specificity and cross-reactivity of these subclones were confirmed with FACs analysis. […] Fluorescent dye-conjugated secondary antibody was used to detect the binding of the primary antibody with the cells. Median fluorescence intensity (MFI) was measured by FACs analysis.

[2] = biological target: T2, human Claudin18.1 (CLDN18.1) (human, UniProt P56856 1-261); assay: FACS on CHOK1-18.1 cells;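 as to FACS MFI: test antibody binding to the cells detected by flow cytometry using a fluorescent dye-labelled secondary antibody, read out as median fluorescence intensity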;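 as to result: antibody binding to cells detected with a fluorescently labelled secondary antibody, read out as median fluorescence intensity (MFI) by flow cytometry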
T2 construct: whole, on cells; also called human Claudine18.1
Procedure: as §1

[3] = biological target: T2, human Claudin18.1 (CLDN18.1); assay: FACS on CHOK1-18.1 cells; remark: listed apart in the source;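 as to FACS MFI: test antibody binding to the cells detected by flow cytometry using a fluorescent dye-labelled secondary antibody, read out as median fluorescence intensity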;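 as to result: antibody binding to cells detected with a fluorescently labelled secondary antibody, read out as median fluorescence intensity (MFI) by flow cytometry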
Procedure: as §1

| Binder | FACS MFI [1] | FACS MFI [2] | binding result [3] |
| --- | --- | --- | --- |
| Ab35 (antibody, V domains shown, mouse monoclonal (hybridoma)) VH: DVFLQESGPGLVKPSQSLSLTCTVTGYSITSDYAWNWIRQFPGNKLEWVTYIGYSGTTSYNPSLKSRISITRDTSKNQFFLQLNSVSTEDTATYYCVRRGSYYGSYWFFDVWGAGTTVTVSS VL: QVVLSQSPAILSASPGEKVTMTCRASSSVSYMHWYQQKPGSSPKPWIYATSNLASGVPPHFSGSGSGTSYSLTISRVEAEDAATYYCQQWTSNPPTFGGGTKLEIK | 11300 | 92.6 | no binding |
| Ab05 (antibody, V domains shown, mouse monoclonal (hybridoma)) VH: DVKLVESGEDLVKPGGSLKLSCAASGFTFSNYAMSWVRQTPEKRLEWVAYVSSGGDYIYYADTVKGRFIISRDNARNTLYLQMNSLRSEDTAMYYCARVYFGNSLDYWGQGTTLTVSS VL: DIVMTQSPSSLTVTAGEKVTLSCKSSQSLLNGGNQKNYLTWYQQRPGQPPKLLIYWASTRESGVPDRFTGSGSGTDFTLIISSVQAEDLAVYYCQNDYYYPWTFGGGTKLEIK | 16000 | 97 | no binding |
| Ab06 (antibody, V domains shown, mouse monoclonal (hybridoma)) VH: EVQLVASGGGLVKPGGSLKLSCAASGITFRSYAMSWVRQTPEKRLEWVATITDGGSYIFYPDNVKGRFTISGDHAKNNLYLQMSHLKSEDTALYFCVRLYYGNSFAYWGQGTLVTVSA VL: DIVMTQSPSSLTVTAGEKVTLNCKSSQSLFNSGNQKNYLTWYQQKPGQPPKLLIYWASTRESGVPDRFTGSGSGTDFTLTFSSVQAEDLAVYYCQNAYIYPFTFGSGTKLEIK | 46100 | 789 | no binding |
| Ab07 (antibody, V domains shown, mouse monoclonal (hybridoma)) VH: EVQLQQSGPELVKPGASVKISCKASGYSFTDYFMNWVKQSHGKGLEWIGRINPYNGDTFYNQKFKGKATLTVDKSSSTAHMELLSLTSEDFAVYYCALYDGYWGAFVYWGQGTLVTVSA VL: DIQMTQSPASLSVFVGETVTITCRASENIYSNLAWYQQKQGKSPQLLVYAATNLADGVPSRFSGSGSGTQYSLKINSLQSEDFGSYYCQHFWGTPLTFGAGTKLELK | 13700 | 764 | no binding |
| Ab08 (antibody, V domains shown, mouse monoclonal (hybridoma)) VH: QVQLQQPGAELVKPGASVKLSCKASGYTFTSYLLHWVKQRPGQGLEWIGMIHPNGGSTNYNEKFKTKATLTVDKSSSTAYMQLSSLTSEDSAVYYCAPVYFGNSFAYWGQGTLVTVSA VL: DIVMTQSPSSLTVTAGEKVTMSCKSSQSLLNSGNQKNYLTWYQQKPGQPPKLLIYWASTRESGVPDRFTGSGSGTDFTLTISSVQAEDLAVYYCQNDYYYPFTFGSGTKLEKK | 19400 | 97 | no binding |
| Ab09 (antibody, V domains shown, mouse monoclonal (hybridoma)) VH: EVQLQQSGPELVKPGTSVKMSCKASGYTFTDYNMHWVKLSHGKSLEWIGYINPNNGGTIYNQRFKGKATLTVNKSSRTAYMDLRSLTSEDSAVYYCARQGYYGNSMDYWGQGNSVTVSS VL: DIVMTQSPSSLTVTPGERVTMSCKSSQSLLNGGNQRNYLTWYQQKPGQPPKLLIYWASTRESGVPDRFAGSGSGTDFTLTISRVQAEDLSFYYCQNSYFYPFTFGSGTKLDLR | 17100 | 95.6 | no binding |
| Ab12 (antibody, V domains shown, mouse monoclonal (hybridoma)) VH: EVMLVESGGGLVKPGGSLKLSCAASGFTFSSYTMSWVRQTPEKRLEWVATIIGGYGNTYYADSVKGRFTISRDSAKNTLYLQMLSLRSEDTALYYCTRLGQTQRNAMDYWGQGTSVTVSS VL: DILMTQSPSSLSVSAGEKVTMSCKSSQSLLNSGNQRNYLAWYQQKPGQPPKLLIYGASTRESGVPDRFTGSGSGTDFTLTISSVQAEDLAVYYCQNDYYYPLTFGAGTKLELK | 8820 | 83.8 | no binding |
| Ab11 (antibody, V domains shown, mouse monoclonal (hybridoma)) VH: EVMLVESGGDLVKPGGSLKLSCAASGFTFSRYTMSWVRQTPEKRLEWVATVSVGSGNTYYLDSVKGRFTISRDNAKNTLFLQMNSLRSEDTALYYCTRLGQTQRNAVDYWGQGTSVTVSS VL: DIVMTQSPSFLSVSAGEKVTMSCKSSQSLFNGGNQKNYLAWYQQKPGQPPKLLIYGASTRDSGVPDRFTGSGSGTDFTLTISNVQAEDLAIYFCQNDHSFPLTFGAGTKLELK | 9800 | 80.8 | no binding |
| Ab13 (antibody, V domains shown, mouse monoclonal (hybridoma)) VH: EVRLVESGGGLVKPGGSLKLSCAGSGFTFSSYTMSWVRQTPEKRLEWVATITIGVNIYYLDSVKGRFTISRDNAKNTLYLQMNSLRSEDTALYYCTRLGQTQRNAMDYWGQGTSVTVSS VL: DIVMTQSPTSLSVSAGEKVTMTCKSSQSLLNSGNQKNYLAWYQEKPGQPPKLLIYGASTRESGVPDRFTGSGSGTDFTLTISSVQAEDLAVYYCQNNHFYPLTFGAGTKLELK | 7460 | 82.3 | no binding |
| Ab02 (antibody, V domains shown, mouse monoclonal (hybridoma)) VH: QVQLKESGPGLVAPSQSLSITCTVSGFSLTSYAINWVRQPPGKGLEWLGVIWTGGGTNYNSALKSRLSINKDNSKSQVFLKMNSLQTDDTARYYCARFYDGYYSWFAYWGQGTLVTVSA VL: DIVMTQSHKFMSTSVGDRVSITCKASQDVGTAVTWYQQKPGQSPKLLIYWASTRHTGVPDRFTGSGSGTDFTLTISNVQSEDLADYFCQQYSSYPFTFGSGTKLEIK | 1380 | 101 | no binding |
| Ab14 (antibody, V domains shown, mouse monoclonal (hybridoma)) VH: QVQLQQPGAELVKPGASVKLSCKASGYTFTSYLLHWVKQRPGQGLEWIGMIHPNGGSTNYNEKFKTKATLTVDKSSSTAYMQLSSLTSEDSAVYYCAPVYFGNSFAYWGQGTLVTVSA VL: DIVMTQSPSSLTVTAGEKVTMSCKSSQSLLNSGNQKNYLTWYQQKPGQPPKLLIYWASTRESGVPDRFTGSGSGTDFTLTISSVQAEDLAVYYCQNDYYYPFTFGSGTKLEKK | 21400 | 97 | no binding |
| Ab15 (antibody, V domains shown, mouse monoclonal (hybridoma); also called mAb Ab15) VH: EVMLVESGGDLVKPGGSLKLSCAASGFTFSTYTMSWVRQTPEKRLEWVATIVGGGGYTYYLDSVKGRFTISRDNAKNTLYLQMISLRSEDTALYYCARMGLTQRNALDYWGQGTSITVSS VL: DIVMTQSPSSLSVSEGEKVTLNCKSSQSLFNSGNQKNYLAWYQQKPGQPPKLLIYGASTRESGVPDRFTGSGFGTDFTLTISSVQAEDLAVYYCQNDHTYPLTFGAGAKLELK | 7390 | 80.8 | no binding |
| Ab16 (antibody, V domains shown, mouse monoclonal (hybridoma)) VH: EVMLVESGGGLVKPGGSLKLSCAASGFTFNSYTMSWVRQTPEKRLEWVATITVIGGNTYYLDSVKGRFTISIDNGKNTLYLQMSSLRSEDTALYYCARMGQTQRNAMDYWGQGTSVTVSS VL: DIVMTQSPSSLSVSAGQKVTMRCKSSQSLLNSGNQKNYLAWYQQKLGQPPKLLIYGASTRESGVPDRFSGSGSGTDFTLTITSVQAEDLAVYYCQNDYSFPLTFGAGTKLELK | 8170 | 80.8 | no binding |
| Ab17 (antibody, V domains shown, mouse monoclonal (hybridoma)) VH: QVQLKESGPGLVAPSQSLSITCTVSGFSLTSYAISWVRQPPGKGLEWLGEIWTGGGTNYNSALKSRLSISKDNSKSQVFLKMNSLQTDDTARYYCGRLSYGNSLDYWGQGTTLTVSS VL: DIVMTQSPSSLTVTAGEKVTMSCKSSQSLLNSGNQKNYLTWYQQKPGQPPKLLIYWASTRESGVPDRFTGSGSGTDFTLTVSSVQAEDLAVYYCQNNFIYPLTFGPGTKLELK | 11500 | 82.3 | no binding |
| Ab18 (antibody, V domains shown, mouse monoclonal (hybridoma)) VH: QVQLKESGPGLVAPSQSLSITCTVSGFSLTTYGINWVRQPPGKGLEWLGVIWGDGSTNYHSALISRLSISKDNSKSQVFLKLNSLQTDDTATYYCVKSSYYGNAMDYWGQGTSVTVSS VL: DIVMTQSPSSLTVTAGETVTMSCKSSQSLLNSGNQKNYLTWYQQKPGQPPKLLIYWASTRESGVPDRFTGSGSGTDFTLTISSVQAEDLAVYYCQNVYSYPFTFGSGTKLEI | 9910 | 79.4 | no binding |
| Ab19 (antibody, V domains shown, mouse monoclonal (hybridoma)) VH: EVMLVESGGDLVKPGGSLKLSCAASGFSFSRYTMSWVRQTPEKRLEWVATVSVGSGNTYYLDSVKGRFTISRDNAKNTLFLQMSSLRSEDTALYYCARMGQTQRNAVDYWGQGTSVTVSS VL: DIVMTQSPSSLSVSAGEKVTMSCKSSQSLFNSGNQKNYLAWYQQKPGQPPKLLIYGASTRESGVPDRFTGSGSGTDFTLTISNVQAEDLAVYLCQNDHSFPLTFGAGTKLEL | 7340 | 80.8 | no binding |
| Ab24 (antibody, V domains shown, mouse monoclonal (hybridoma)) VH: EVKLVESGGGLVKPGGSLKLSCAGSGFTFSSYTMSWVRQTPEKRLEWVATITIGVNIYYLDSVKGRFTISRDNAKNTLYLQMNSLRSEDTALYYCTRLGQTQRNAMDYWGQGTSVTVSS VL: DIVMTQSPTSLSVSAGEKVTMTCKSSQSLFNSGNQKNYLAWYQEKPGQPPKLLIYGASTRESGVPDRFTGSGSGTDFTLTISSVQAEDLAVYYCQNVHFYPFTFGAGTKLEL | 10100 | 80.8 | no binding |
| Ab25 (antibody, V domains shown, mouse monoclonal (hybridoma)) VH: EAQLQQSGPELVKPGASVKIFCKASGYTFTDYYINWVKQSHGKSLEWIGDINPNNGGTTYNQKFKGKATLTVDKSSSTASMELRRLTSEDSSVYYCARRDAMDYWGQGTSVTVSS VL: DIVMTQSQKFMSTTVGDRVSITCTASQNVGPAVAWYQQKPGQSPKLLIYSASRRFTGVPDRFTGSGSGTVFTLTINNVQSEDLADYFCQQYISYPLTFGAGTKLELK | 12600 | 82.3 | no binding |
